Data from doi:10.1101/2022.06.09.495453, “Molecular insights into human Shieldin complex assembly and recruitment to DSBs” (bioRxiv, 2022).
Values belong to the binder of their own block, whether it stands above or below them.

Columns and labels:
REV7^WT = target: T1, REV7^WT (human, UniProt Q9UI95 1-211); experiment: SPR; SHLD3^1-62 or REV3^1871-2014 immobilised on an SCR HC30M chip by EDC-NHS coupling; REV7^WT or REV7^R124A injected in two-fold dilutions; buffer B with 0.05% Tween 20; KD estimated from plateau values at the end of the dissociation phase; conditions: both partners purified
T1 construct: REV7 (MAD2L2), human, HORMA domain protein; 211 residues printed; wild type; also called WT-REV7; MAD2L2; source: E. coli LOBSTR, purified (metal chelating column, tag cleavage, SEC)
T1 sequence (Q9UI95 whole entry, the tested form may be a part): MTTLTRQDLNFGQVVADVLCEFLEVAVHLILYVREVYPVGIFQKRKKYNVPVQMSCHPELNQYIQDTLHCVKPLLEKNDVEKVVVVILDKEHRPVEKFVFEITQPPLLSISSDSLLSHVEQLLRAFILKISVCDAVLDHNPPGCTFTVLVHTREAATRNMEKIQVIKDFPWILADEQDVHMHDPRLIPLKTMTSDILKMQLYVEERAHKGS

REV7^R124A [1] = target: REV7^R124A (human, UniProt Q9UI95 1-211, R124A); experiment: SPR
REV7^R124A [2] = target: T2, REV7^R124A (human, UniProt Q9UI95 1-211, R124A); experiment: SPR; SHLD3^1-62 or REV3^1871-2014 immobilised on an SCR HC30M chip by EDC-NHS coupling; REV7^WT or REV7^R124A injected in two-fold dilutions; buffer B with 0.05% Tween 20; KD estimated from plateau values at the end of the dissociation phase; conditions: both partners purified
T2 construct: REV7 (MAD2L2), human; 211 residues printed; R124A; also called R124A-REV7; source: E. coli LOBSTR, purified (metal chelating column, tag cleavage, SEC)
T2 sequence (Q9UI95 whole entry R124A): as the sequence (Q9UI95 whole entry, the tested form may be a part) above, with R124A counted along it

MBP-REV7^WT = target: T3, MBP-REV7^WT (human, UniProt Q9UI95 1-211); experiment: pull-down; MBP pull-down of GST-SHLD3^1-83 with MBP-REV7^WT or MBP-REV7^core; conditions: both partners purified
T3 construct: REV7 (MAD2L2), human; 211 residues printed; wild type; source: E. coli LOBSTR, purified; not shown: hexahistidine-MBP, N-terminal, kept
T3 sequence (Q9UI95 whole entry): as the sequence (Q9UI95 whole entry, the tested form may be a part) above

- binding result (REV7^WT): binds
B1: REV3^1871-2014 (domain or fragment, human, UniProt O60673 1871-2014, looked up)
chain: TPRTANILKPLMSPPSREEIMATLLDHDLSETIYQEPFCSNPSDVPEKPREIGGRLLMVETRLANDLAEFEGDFSLEGLRLWKTAFSAMTQNPRPGSPLRSGQGVVNKGSSNSPKMVEDKKIVIMPCKCAPSRQLVQVWLQAKE
notes: REV3, human, residues 1871-2014 (holds RBM1 1875-1896 and RBM2 1991-2012); The general protocol cleaves the tag; source: E. coli LOBSTR, purified

- Kd (REV7^R124A [1]): ~67 nM
- binding result (REV7^R124A [2]): binds
- Kd (REV7^WT): ~38 nM
B2: SHLD3^1-62 (domain or fragment, human, UniProt Q6ZNX1 1-62, looked up)
chain: MTTEVILHYRPCESDPTQLPKIAEKAIQDFPTRPLSRFIPWFPYDGSKLPLRPKRSPPVISE
notes: SHLD3, human, residues 1-62; The general protocol cleaves the tag; also called SHLD3^RBM; source: E. coli LOBSTR, purified

- binding result (MBP-REV7^WT): binds
B3: GST-SHLD3^1-83 (domain or fragment, human, UniProt Q6ZNX1 1-83, looked up)
chain: MTTEVILHYRPCESDPTQLPKIAEKAIQDFPTRPLSRFIPWFPYDGSKLPLRPKRSPPVISEEAAEDVKQYLTISEHDAKSHS
notes: SHLD3, human, residues 1-83; also called SHLD3^RBM; source: E. coli LOBSTR, purified; not shown: GST, N-terminal, kept
